{"source": "paper PMC9926331", "about": "(Journal of Molecular Cell Biology, 2022)", "target": "GST-TIP60 (human, UniProt Q92993 1-513)", "sequence (Q92993 whole entry, the tested form may be a part)": "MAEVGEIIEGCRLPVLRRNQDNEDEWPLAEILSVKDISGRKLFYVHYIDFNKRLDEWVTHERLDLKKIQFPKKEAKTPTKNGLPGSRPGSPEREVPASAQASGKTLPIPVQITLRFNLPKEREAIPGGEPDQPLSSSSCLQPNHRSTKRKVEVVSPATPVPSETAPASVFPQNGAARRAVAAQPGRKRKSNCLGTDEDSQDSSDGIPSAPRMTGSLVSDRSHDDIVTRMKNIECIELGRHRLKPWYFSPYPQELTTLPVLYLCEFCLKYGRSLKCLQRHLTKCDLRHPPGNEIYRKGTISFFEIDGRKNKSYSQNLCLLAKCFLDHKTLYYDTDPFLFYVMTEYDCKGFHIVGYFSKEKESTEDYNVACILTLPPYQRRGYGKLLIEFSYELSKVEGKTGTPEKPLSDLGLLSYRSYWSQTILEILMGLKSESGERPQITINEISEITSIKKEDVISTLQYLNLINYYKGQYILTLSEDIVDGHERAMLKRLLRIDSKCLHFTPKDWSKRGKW", "assay": "pull-down", "data": [{"binder": "MBP-Nup62-CT (domain or fragment, human, UniProt P37198 329-522, looked up) TYAQLESLINKWSLELEDQERHFLQQATQVNAWDRTLIENGEKITSLHREVEKVKLDQKRLDQELDFILSQQKELEDLLSPLEELVKEQSGTIYLQHADEEREKTYKLAENIDAQLKRMAQDLKDIIEHLNTSGAPADTSDPLQQICKILNAHMDSLQWIDQNSALLQRKVEEVTKVCEGRRKEQERSFRITFD", "values": [{"measurement": "binding result", "value": "binds"}]}]}
